From article PMC12218935, “Opposing role of phagocytic receptors MERTK and AXL in Progranulin deficient FTD” (Communications Biology, 2025)

T1: Fc-Mer (MERTK Fc chimera) (human, UniProt Q12866 21-505)
T1 chain: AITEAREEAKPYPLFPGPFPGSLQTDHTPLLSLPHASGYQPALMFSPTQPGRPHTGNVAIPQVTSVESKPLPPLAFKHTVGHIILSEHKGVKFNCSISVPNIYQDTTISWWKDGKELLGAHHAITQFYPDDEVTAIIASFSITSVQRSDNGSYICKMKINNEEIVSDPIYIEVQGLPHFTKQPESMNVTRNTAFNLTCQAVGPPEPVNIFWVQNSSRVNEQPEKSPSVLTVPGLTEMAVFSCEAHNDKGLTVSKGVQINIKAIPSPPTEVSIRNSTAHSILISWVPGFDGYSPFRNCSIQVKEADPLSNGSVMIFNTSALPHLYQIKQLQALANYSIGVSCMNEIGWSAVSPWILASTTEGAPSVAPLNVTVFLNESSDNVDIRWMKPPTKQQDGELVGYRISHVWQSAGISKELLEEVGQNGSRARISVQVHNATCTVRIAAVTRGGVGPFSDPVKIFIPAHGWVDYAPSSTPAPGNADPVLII

T2: Gas6, recombinant human, His-tagged (human, UniProt Q14393 31-678)
T2 construct: human GAS6, recombinant, bought from R&D Systems; Limits and the end of the tag are in the vendor's data sheet; also called H6-tagged-GAS6; source: bought: R&D Systems (885-GSB-050)
T2 sequence (looked up): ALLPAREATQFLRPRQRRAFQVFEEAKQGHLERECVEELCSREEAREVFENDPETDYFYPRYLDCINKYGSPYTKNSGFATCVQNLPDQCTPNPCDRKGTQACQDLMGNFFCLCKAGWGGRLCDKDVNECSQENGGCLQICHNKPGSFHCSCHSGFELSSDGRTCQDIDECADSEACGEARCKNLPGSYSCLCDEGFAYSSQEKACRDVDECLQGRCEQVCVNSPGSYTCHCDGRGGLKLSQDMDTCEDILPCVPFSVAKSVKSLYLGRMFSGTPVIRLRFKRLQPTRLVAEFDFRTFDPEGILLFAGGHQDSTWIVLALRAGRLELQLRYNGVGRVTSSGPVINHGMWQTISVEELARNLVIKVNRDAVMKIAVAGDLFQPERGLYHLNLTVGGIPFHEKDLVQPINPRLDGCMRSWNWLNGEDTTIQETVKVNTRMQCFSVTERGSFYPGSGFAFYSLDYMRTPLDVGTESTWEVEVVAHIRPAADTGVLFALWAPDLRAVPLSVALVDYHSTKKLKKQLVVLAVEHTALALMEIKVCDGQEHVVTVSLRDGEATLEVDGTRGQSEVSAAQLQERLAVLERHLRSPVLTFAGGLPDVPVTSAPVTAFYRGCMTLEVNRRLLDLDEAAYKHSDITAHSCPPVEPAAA


Key:
[1] = molecular target: T1, Fc-Mer (MERTK Fc chimera); test: SPR
[2] = molecular target: T2, Gas6, recombinant human, His-tagged; test: SPR; Biacore T200, CM5 chip; Protein A amine-coupled (2300 RU), Fc-Mer (150 RU) or Fc-Axl (140 RU) captured; Gas6 or PGRN injected at 20 uL/min for 500 s, 1000 s dissociation; HBS-EP+ with 1.5 mM CaCl2 and 0.1% BSA; 1:1 kinetic model; conditions: both partners purified

Row | Binder | koff [1] | Kd [2]
1 | Gas6, recombinant human, His-tagged (ligand) ALLPAREATQFLRPRQRRAFQVFEEAKQGHLERECVEELCSREEAREVFENDPETDYFYPRYLDCINKYGSPYTKNSGFATCVQNLPDQCTPNPCDRKGTQACQDLMGNFFCLCKAGWGGRLCDKDVNECSQENGGCLQICHNKPGSFHCSCHSGFELSSDGRTCQDIDECADSEACGEARCKNLPGSYSCLCDEGFAYSSQEKACRDVDECLQGRCEQVCVNSPGSYTCHCDGRGGLKLSQDMDTCEDILPCVPFSVAKSVKSLYLGRMFSGTPVIRLRFKRLQPTRLVAEFDFRTFDPEGILLFAGGHQDSTWIVLALRAGRLELQLRYNGVGRVTSSGPVINHGMWQTISVEELARNLVIKVNRDAVMKIAVAGDLFQPERGLYHLNLTVGGIPFHEKDLVQPINPRLDGCMRSWNWLNGEDTTIQETVKVNTRMQCFSVTERGSFYPGSGFAFYSLDYMRTPLDVGTESTWEVEVVAHIRPAADTGVLFALWAPDLRAVPLSVALVDYHSTKKLKKQLVVLAVEHTALALMEIKVCDGQEHVVTVSLRDGEATLEVDGTRGQSEVSAAQLQERLAVLERHLRSPVLTFAGGLPDVPVTSAPVTAFYRGCMTLEVNRRLLDLDEAAYKHSDITAHSCPPVEPAAA | 0.000888 s⁻¹ | 
2 | Fc-Mer (MERTK Fc chimera) (Fc fusion, human, UniProt Q12866 21-505, looked up, human MERTK (Mer) part of the bought Fc chimera; Captured on Protein A by its Fc; As far as I recall the vendor's product is the extracellular domain of human Mer fused to human IgG1 Fc at the C-terminus; limits are in the vendor's data sheet; source: bought: R&D Systems (891-MR-100)) AITEAREEAKPYPLFPGPFPGSLQTDHTPLLSLPHASGYQPALMFSPTQPGRPHTGNVAIPQVTSVESKPLPPLAFKHTVGHIILSEHKGVKFNCSISVPNIYQDTTISWWKDGKELLGAHHAITQFYPDDEVTAIIASFSITSVQRSDNGSYICKMKINNEEIVSDPIYIEVQGLPHFTKQPESMNVTRNTAFNLTCQAVGPPEPVNIFWVQNSSRVNEQPEKSPSVLTVPGLTEMAVFSCEAHNDKGLTVSKGVQINIKAIPSPPTEVSIRNSTAHSILISWVPGFDGYSPFRNCSIQVKEADPLSNGSVMIFNTSALPHLYQIKQLQALANYSIGVSCMNEIGWSAVSPWILASTTEGAPSVAPLNVTVFLNESSDNVDIRWMKPPTKQQDGELVGYRISHVWQSAGISKELLEEVGQNGSRARISVQVHNATCTVRIAAVTRGGVGPFSDPVKIFIPAHGWVDYAPSSTPAPGNADPVLII |  | 27.7 nM
